Here are results for 55 molecules from publication PMC314469, “Protein Interaction Networks by Proteome Peptide Scanning” (PLoS Biology, 2004).

For this test, the target named is Sho1 SH3 (SHO1_YEAST), P40073. Put plainly: SPOT array.
Sho1 SH3 (SHO1_YEAST), P40073, sequence (P40073 295-366): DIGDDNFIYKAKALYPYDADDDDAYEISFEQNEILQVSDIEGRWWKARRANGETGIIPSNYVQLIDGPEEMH
As to TLIPPIPEKQSIKN [210-223 Hypothetical ORF], the normalised SPOT signal, Boehringer light units (BLU); mean over the file's lines of this peptide amounted to 86.6.

With TPPPVEPLKTKDLA [102-115 Hypothetical ORF], the normalised SPOT signal, Boehringer light units (BLU); mean over the file's lines of this peptide was found to be 128.

Molecule VKRPLSPTRINGKS registered a normalised SPOT signal, Boehringer light units (BLU); mean over the file's lines of this peptide of 160.

The molecule VPPPNVPKKDKREV [659-672 Ubiquitin-specific protease] gave a normalised SPOT signal, Boehringer light units (BLU); mean over the file's lines of this peptide of 11300.

As for THAPTTPNRTSPNR [507-520 serine/threonine protein kinase], the normalised SPOT signal, Boehringer light units (BLU); mean over the file's lines of this peptide came to 60.5.

In turn, TDSPQLPSKDKSQE [472-485 " Anti-silencing protein, involved in transcription"] came in with a normalised SPOT signal, Boehringer light units (BLU); mean over the file's lines of this peptide of 81.7.

Take YSLPMHPGRWWVHT [222-235 " 2,3-oxidosqualene-lanosterol cyclase"]: the normalised SPOT signal, Boehringer light units (BLU); mean over the file's lines of this peptide is 453.

YILPKNPFRVPSEM [125-138 Hypothetical ORF] displayed a normalised SPOT signal, Boehringer light units (BLU); mean over the file's lines of this peptide of 290.

Molecule VTVPKLPFKLAVNK [181-194 integral membrane protein] returned a normalised SPOT signal, Boehringer light units (BLU); mean over the file's lines of this peptide of 129.

Turning to VDAPINPTKILTFI [375-388 Weak similarity to Pta1p (pre-tRNA processing protein)], the normalised SPOT signal, Boehringer light units (BLU); mean over the file's lines of this peptide worked out at 174.

In turn, VFLPTAPSKHMDFA [478-491 TATA binding protein-associated factor (TAF)] gave a normalised SPOT signal, Boehringer light units (BLU); mean over the file's lines of this peptide of 342.

Consider TEPPMNPLKNREKM [109-122 actin-related protein], for which the normalised SPOT signal, Boehringer light units (BLU); mean over the file's lines of this peptide is 138.

In turn, VHGPGIPMKSLEVA [381-394 MAL-activator protein] displayed a normalised SPOT signal, Boehringer light units (BLU); mean over the file's lines of this peptide of 198.

In the case of TSTPPLPRRRATTS [247-260 Glycine-threonine-serine repeat protein], the normalised SPOT signal, Boehringer light units (BLU); mean over the file's lines of this peptide stood at 366.

VIRPGVPTKFTKKQ [1275-1288 Glutamate synthase (NADPH)] displayed a normalised SPOT signal, Boehringer light units (BLU); mean over the file's lines of this peptide of 513.

For the molecule TDYPFKPPKVNFTT, the normalised SPOT signal, Boehringer light units (BLU); mean over the file's lines of this peptide came to 74.8.

YQYPQTPSKVDISI [243-256 Product of gene unknown] registered a normalised SPOT signal, Boehringer light units (BLU); mean over the file's lines of this peptide of 196.

VETPPKPIKKDVRF [535-548 " cytoskeletal protein, similar to arrestins"] came in with a normalised SPOT signal, Boehringer light units (BLU); mean over the file's lines of this peptide of 8540.

In turn, VLEPSKPYKKNPFM [663-676 Hypothetical ORF] displayed a normalised SPOT signal, Boehringer light units (BLU); mean over the file's lines of this peptide of 121.

Turning to VSDPYVPTRNTFNY [142-155 ubiquitin-mediated 26S proteasome subunit], the normalised SPOT signal, Boehringer light units (BLU); mean over the file's lines of this peptide was 392.

Turning to VHDPNIPLRPKEII [643-656 Ubiquitin-protein ligase], the normalised SPOT signal, Boehringer light units (BLU); mean over the file's lines of this peptide worked out at 128.

Take VSIPFDPSKDTFDH [741-754 P-type ATPase]: the normalised SPOT signal, Boehringer light units (BLU); mean over the file's lines of this peptide was determined as 94.6.

YKIPVVPPRETYFA [507-520 involved in cell wall biogenesis] gave a normalised SPOT signal, Boehringer light units (BLU); mean over the file's lines of this peptide of 195.

On to SSYPMNPPKISFMQ [86-99 Member of ubiquitin-conjugating protein family], for which the normalised SPOT signal, Boehringer light units (BLU); mean over the file's lines of this peptide came out at 73.5.

TLRPGIPLKPMLAK [384-397 DNA ligase] yielded a normalised SPOT signal, Boehringer light units (BLU); mean over the file's lines of this peptide of 452.

YMQPIIPGKTESFE [151-164 similar to ubiquitin activating enzyme (E1)] showed a normalised SPOT signal, Boehringer light units (BLU); mean over the file's lines of this peptide of 165.

In turn, STSPPRPKRIVVAI [48-61 Phenylacrylic acid decarboxylase] had a normalised SPOT signal, Boehringer light units (BLU); mean over the file's lines of this peptide of 115.

Turning to VTLPISPSRASISF [70-83 Hypothetical ORF], the normalised SPOT signal, Boehringer light units (BLU); mean over the file's lines of this peptide is 120.

Molecule TKVPSKPDRNSKIL [463-476 global regulator of transcription] had a normalised SPOT signal, Boehringer light units (BLU); mean over the file's lines of this peptide of 132.

Molecule YGPPTDPRKQKQAK [36-49 neutral trehalase] showed a normalised SPOT signal, Boehringer light units (BLU); mean over the file's lines of this peptide of 198.

As to TPAPNLPEKTRLAL [872-885 Urea amidolyase (contains urea carboxylase and allophanate hydrolase)], the normalised SPOT signal, Boehringer light units (BLU); mean over the file's lines of this peptide came to 60.9.

Molecule VFSPTNPLRIKIAR [326-339 putative calcium channel] had a normalised SPOT signal, Boehringer light units (BLU); mean over the file's lines of this peptide of 102.

As for VTLPTGPAKIIWEK [510-523 cytochrome P450 lanosterol 14a-demethylase], the normalised SPOT signal, Boehringer light units (BLU); mean over the file's lines of this peptide turned out to be 136.

In the case of TNYPVNPEKHEMDK [1667-1680 GTPase activating protein], the normalised SPOT signal, Boehringer light units (BLU); mean over the file's lines of this peptide came out at 29.3.

WKPPDLPIRLRKRP [502-515 Ubiquitin-specific protease]: the normalised SPOT signal, Boehringer light units (BLU); mean over the file's lines of this peptide amounted to 3660.

The molecule VVSPSHPFKQLQKI [146-159 (putative) involved in cell wall biogenesis] displayed a normalised SPOT signal, Boehringer light units (BLU); mean over the file's lines of this peptide of 150.

For VHGPGVPVKTLEIA [386-399 MAL-activator protein], the normalised SPOT signal, Boehringer light units (BLU); mean over the file's lines of this peptide was determined as 88.

On to VENPFLPAKEERTG [910-923 159-kDa nucleoporin with coiled-coil domain and repeated motifs typical of nucleoporins], for which the normalised SPOT signal, Boehringer light units (BLU); mean over the file's lines of this peptide is 157.

Take TEAPMNPLKNREQM [114-127 Centractin]: the normalised SPOT signal, Boehringer light units (BLU); mean over the file's lines of this peptide is 132.

The molecule VQQPEDPLRVLGEY [143-156 Hypothetical ORF] came in with a normalised SPOT signal, Boehringer light units (BLU); mean over the file's lines of this peptide of 128.

Consider TNPPIDPIREANVM [572-585 Glutamate synthase (NADPH)], for which the normalised SPOT signal, Boehringer light units (BLU); mean over the file's lines of this peptide is 0.

For VKHPMKPFRLMLTD [43-56 (putative) histone deacetylase], the normalised SPOT signal, Boehringer light units (BLU); mean over the file's lines of this peptide came to 691.

Molecule VVIPPVPSRYSDER [95-108 Product of gene unknown] returned a normalised SPOT signal, Boehringer light units (BLU); mean over the file's lines of this peptide of 58.

Consider VSTPPVPKKFQEIF [9-22 cox1 pre-mRNA splicing factor], for which the normalised SPOT signal, Boehringer light units (BLU); mean over the file's lines of this peptide was 235.

WSYPYEPLRVLQVG [17-30 Hypothetical ORF] registered a normalised SPOT signal, Boehringer light units (BLU); mean over the file's lines of this peptide of 898.

TTAPRGPKKAQPAQ [176-189 transcriptional activator of the SKN7 mediated 'two-component' regulatory system] returned a normalised SPOT signal, Boehringer light units (BLU); mean over the file's lines of this peptide of 45.2.

TDYPFKPPKISFTT came in with a normalised SPOT signal, Boehringer light units (BLU); mean over the file's lines of this peptide of 178.

The molecule TTRPAPPSKAKDVA [347-360 Hypothetical ORF] displayed a normalised SPOT signal, Boehringer light units (BLU); mean over the file's lines of this peptide of 763.

For the molecule WNLPWSPFKITTIM [95-108 Translation initiation factor eIF-2B epsilon subunit], the normalised SPOT signal, Boehringer light units (BLU); mean over the file's lines of this peptide stood at 1240.

The molecule TEVPSKPKKPSKTE [568-581 negative regulator of prp genes] gave a normalised SPOT signal, Boehringer light units (BLU); mean over the file's lines of this peptide of 79.6.

As to VDPPFMPFRDAGYS [120-133 soluble tyrosine-specific protein phosphatase], the normalised SPOT signal, Boehringer light units (BLU); mean over the file's lines of this peptide is -0.

As to TKTPTQPIRLQTVS [519-532 putative zinc finger protein], the normalised SPOT signal, Boehringer light units (BLU); mean over the file's lines of this peptide turned out to be 40.1.

As to YPSPAQPPKSPLLN [448-461 " involved in bud formation, has SH3 domain"], the normalised SPOT signal, Boehringer light units (BLU); mean over the file's lines of this peptide turned out to be 128.

TRRPHHPLKQQSTN [34-47 Hypothetical ORF] yielded a normalised SPOT signal, Boehringer light units (BLU); mean over the file's lines of this peptide of 177.

TSAPDIPPRSPNRN [54-67 Hypothetical ORF]: the normalised SPOT signal, Boehringer light units (BLU); mean over the file's lines of this peptide was 107.
